Experimental data published in paper PMC10113271, “Rational peptide design for inhibition of the KIX–MLL interaction” (Scientific Reports, 2023).
Where no end group is shown, it is not given here. The star is where a group is joined. FITC = O=C1OC2(c3ccc(O)cc3Oc3cc(O)ccc32)c2ccc(NC(=S)*)cc21; βAla = NCCC(=O)O

B1: His-tag–GB1–MLL TAD (wild type) (peptide)
chain: GNILPSDIMDFVLKNTPSMQALGESPESY
notes: MLL TAD, residues 2842-2869 of human MLL; Tyr residue attached at the C-terminus for concentration determination by UV absorption; Used in ITC and immobilised in SPR; also called wild-type MLL TAD; WT; source: E. coli BL21(DE3), purified (Ni-NTA); not shown: His6, N-terminal, kept
B2: His-tag–GB1–MLL TAD K2855R/T2857L (peptide)
chain: GNILPSDIMDFVLRNLPSMQALGESPESY
notes: MLL TAD, residues 2842-2869 of human MLL, with the substitutions; Tyr residue attached at the C-terminus for concentration determination by UV absorption; also called K2855R/T2857L double mutant; source: E. coli BL21(DE3), purified (Ni-NTA); not shown: His6, N-terminal, kept
B3: His-tag–GB1–MLL TAD K2855R/T2857W (peptide)
chain: GNILPSDIMDFVLRNWPSMQALGESPESY
notes: MLL TAD, residues 2842-2869 of human MLL, with the substitutions; Tyr residue attached at the C-terminus for concentration determination by UV absorption; also called K2855R/T2857W double mutant; source: E. coli BL21(DE3), purified (Ni-NTA); not shown: His6, N-terminal, kept
B4: His-tag–GB1–MLL TAD T2857A (peptide)
chain: GNILPSDIMDFVLKNAPSMQALGESPESY
notes: MLL TAD, residues 2842-2869 of human MLL, with the substitution; Tyr residue attached at the C-terminus for concentration determination by UV absorption; source: E. coli BL21(DE3), purified (Ni-NTA); not shown: His6, N-terminal, kept
B5: His-tag–GB1–MLL TAD T2857F (peptide)
chain: GNILPSDIMDFVLKNFPSMQALGESPESY
notes: as for B4
B6: His-tag–GB1–MLL TAD T2857K (peptide)
chain: GNILPSDIMDFVLKNKPSMQALGESPESY
notes: as for B4
B7: His-tag–GB1–MLL TAD T2857L (peptide)
chain: GNILPSDIMDFVLKNLPSMQALGESPESY
notes: as for B4
B8: His-tag–GB1–MLL TAD T2857R (peptide)
chain: GNILPSDIMDFVLKNRPSMQALGESPESY
notes: as for B4
B9: His-tag–GB1–MLL TAD T2857W (peptide)
chain: GNILPSDIMDFVLKNWPSMQALGESPESY
notes: MLL TAD, residues 2842-2869 of human MLL, with the substitution; Tyr residue attached at the C-terminus for concentration determination by UV absorption; Used in ITC; also called designed T2857W peptide; T2857W mutant of the MLL TAD peptide; source: E. coli BL21(DE3), purified (Ni-NTA); not shown: His6, N-terminal, kept
B10: His-tag–GB1–MLL TAD T2857Y (peptide)
chain: GNILPSDIMDFVLKNYPSMQALGESPESY
notes: as for B4
B11: MLL TAD peptide D2851L without His-tag–GB1 (peptide)
chain: GNILPSDIMLFVLKNTPSMQALGESPESY
notes: MLL TAD, residues 2842-2869 of human MLL, with the substitution; Tyr residue attached at the C-terminus for concentration determination by UV absorption; One of the four mutants used without His-tag–GB1 in ITC as well as in CD; source: E. coli BL21(DE3), purified (Ni-NTA, thrombin digestion on the column, anion exchange); not shown: His6, N-terminal, cleaved
B12: MLL TAD peptide I2849L without His-tag–GB1 (peptide)
chain: GNILPSDLMDFVLKNTPSMQALGESPESY
notes: as for B11
B13: MLL TAD peptide K2855R without His-tag–GB1 (peptide)
chain: GNILPSDIMDFVLRNTPSMQALGESPESY
notes: as for B11
B14: MLL TAD peptide T2857I without His-tag–GB1 (peptide)
chain: GNILPSDIMDFVLKNIPSMQALGESPESY
notes: as for B11
B15: FITC-labeled c-Myb TAD peptide (peptide)
peptide: {FITC-βAla}-GYNDEDPEKEKRIKELELLLMSTENELKGQQAL
notes: first residue of the printed peptide; as far as I recall not a residue of c-Myb at this position; c-Myb TAD; 33 residues as printed; also called FITC-Myb; source: synthetic peptide, bought: Biologica Co
B16: designed T2857W peptide used as inhibitor in fluorescence polarization (peptide)
chain: GNILPSDIMDFVLKNWPSMQALGESPESY
notes: MLL TAD, residues 2842-2869 of human MLL, with the substitution; Tyr residue attached at the C-terminus for concentration determination by UV absorption; also called designed peptide; source: E. coli BL21(DE3), purified (Ni-NTA)
B17: wild-type MLL TAD peptide used as inhibitor in fluorescence polarization (peptide)
chain: GNILPSDIMDFVLKNTPSMQALGESPESY
notes: MLL TAD, residues 2842-2869 of human MLL; Tyr residue attached at the C-terminus for concentration determination by UV absorption; also called wild-type peptide; WT; source: E. coli BL21(DE3), purified (Ni-NTA)

The binders below were run against T1, KIX domain of CREB-binding protein (residues 586–672 of mouse CBP) (mouse, UniProt P45481 586-672) (assay: ITC; 600 μM MLL solution titrated into the cell containing 45 µM KIX; 30 °C; 20 mM Tris–acetate pH 7.0, 50 mM NaCl; one-site binding model). Conditions: both partners purified.
T1 construct: KIX domain, residues 586-672 of mouse CBP; 6xHis-tag and thrombin cleavage site at the N-terminus; source: E. coli BL21(DE3)pLysS, purified (Ni-NTA, gel filtration on Superdex 200 pg)
T1 sequence (P45481 586-672): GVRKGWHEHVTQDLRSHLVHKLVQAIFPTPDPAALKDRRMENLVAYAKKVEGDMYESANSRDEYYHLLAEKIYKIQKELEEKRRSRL
B1 was tested, and the Kd was 2020 nM, the dH was -13.1 kcal/mol and the “stoichiometry N” value was 1.02.
With B2 the Kd was 1720 nM, the dH was -9.5 kcal/mol and the “stoichiometry N” value was 1.09.
B3 was tested, and the Kd was 1040 nM, the dH was -12.2 kcal/mol and the “stoichiometry N” value was 1.04.
In the case of B4, the Kd is reported as 2620 nM, the dH is reported as -11.8 kcal/mol and the “stoichiometry N” value is reported as 1.03.
B5 was tested, and the Kd was 2100 nM, the dH was -11.1 kcal/mol and the “stoichiometry N” value was 1.07.
For B6, the Kd was 4900 nM, the dH was -11.7 kcal/mol and the “stoichiometry N” value was 1.02.
B7 was tested, and the Kd was 1900 nM, the dH was -10.5 kcal/mol and the “stoichiometry N” value was 1.05.
With B8 the Kd was 3000 nM, the dH was -12.6 kcal/mol and the “stoichiometry N” value was 1.03.
With B9 the Kd was 950 nM, the dH was -12.8 kcal/mol and the “stoichiometry N” value was 1.02.
With B10 the Kd was 2280 nM, the dH was -12.3 kcal/mol and the “stoichiometry N” value was 1.02.
For B11, the Kd was 4800 nM, the dH was -8.8 kcal/mol and the “stoichiometry N” value was 1.02.
With B12 the Kd was 2800 nM, the dH was -12.3 kcal/mol and the “stoichiometry N” value was 0.947.
With B13 the Kd was 1500 nM, the dH was -13.8 kcal/mol and the “stoichiometry N” value was 0.94.
With B14 the Kd was 2400 nM, the dH was -10 kcal/mol and the “stoichiometry N” value was 1.04.

What follows are binders tested against T1, KIX domain of CREB-binding protein … (assay: fluorescence polarisation; 0–100 μM KIX titrated into 25 nM FITC-labeled peptide; 30 °C; 20 mM sodium phosphate pH 7.0, 100 mM NaCl, 0.005% Tween 20). Conditions: both partners purified.
B15: binds.

What follows are binders tested against T1, KIX domain of CREB-binding protein … (assay: SPR; competition: mixture of KIX (5 μM) and inhibitor (0.27–200 μM) injected over immobilised His-tag–GB1–MLL TAD; 30 °C; 20 mM sodium phosphate pH 7.0, 100 mM NaCl, 0.05% Tween 20). Conditions: both partners purified.
In the case of B1, the IC50 is reported as 10400 nM.
Binder B9 has an IC50 of 5670 nM.

The binders below were run against T1, KIX domain of CREB-binding protein … (assay: SPR; His-tag–GB1–MLL TAD immobilised on CM5 by amine coupling (77.9 RU); KIX 0.04–30 μM injected; 30 °C; 20 mM sodium phosphate pH 7.0, 100 mM NaCl, 0.05% Tween 20; equilibrium analysis). Conditions: both partners purified.
For B1, the Kd was 4940 nM.

The binders below were run against T1, KIX domain of CREB-binding protein … (assay: fluorescence polarisation; competition: inhibitor (0–200 μM) titrated into a mixture of KIX (2 μM) and FITC-MLL (25 nM); 30 °C; 20 mM sodium phosphate pH 7.0, 100 mM NaCl, 0.005% Tween 20). Conditions: both partners purified.
Work on B16 yielded an IC50 of 3480 nM.
Binder B17 has an IC50 of 7100 nM.

What follows are binders tested against T1, KIX domain of CREB-binding protein … (assay: fluorescence polarisation; competition: inhibitor (0–200 μM) titrated into a mixture of KIX (2 μM) and FITC-Myb (25 nM); 30 °C; 20 mM sodium phosphate pH 7.0, 100 mM NaCl, 0.005% Tween 20). Conditions: both partners purified.
Work on B16 yielded an IC50 of 16000 nM.
For B17, the IC50 was 36000 nM.
